Drawing on article PMC8937215, this text covers TRACC UAS-mCherry reporter by confocal imaging, HEK293T in trans: percent of receiver cells in contact with sender cells with reporter expression above background for one substance.

The target of the test is CCR6-NES-eLOV-TEVcs-FLAG-Gal4-V5 receiver construct, expressed in HEK293T cells.

“CCL20 sender construct (CCL20-18 aa linker-3xHA-pre-mGRASP), expressed in HEK293T cells (ligand)” displayed a TRACC UAS-mCherry reporter by confocal imaging, HEK293T in trans: percent of receiver cells in contact with sender cells with reporter expression above background of 80.2%.
